The values that follow are results of earlier work, collected in article PMC7106362.

This data set addresses m157 (Murine cytomegalovirus) (UniProt A8E1S5). As to the kind of experiment: SPR.

Broadly, the Kd is the concentration at which binding is half-saturated. Consider Ly49H (from UniProt Q60682), for which the Kd was 1000 nM.
